Target: CR3 (Homo sapiens, UniProt P11215)
Experiment: MST

Kd: 5.73 nM
B1: Complement C3 (peptide)
chain: SSKITHRIHWESASLLR

Reference: article PMC12374583 (2025)
